{
  "source": "patent US20140348819A1",
  "about": "“Methods of Treating Cancer” (Dana-Farber Cancer Institute, Inc., priority 2011, published 2014)",
  "tested_on": "six V600E BRAF melanoma cell lines",
  "experiment": "Screening of recombinant RTK ligands for ability to confer resistance to BRAFi (PLX4720) or MEKi (PD184352) (Table 4)",
  "type": "cell-based, human",
  "parameters": "ability of recombinant RTK ligand to confer resistance / ability of recombinant RTK ligand to confer resistance (screening value): scale not given here",
  "procedure": "HGF is the only one that can substantially confer drug resistance to the cell lines.\nThe complexity of the tumor microenvironment is much greater than an in vitro co-culture system. Therefore, the inventors explored whether the activation of other RTKs could result in a similar resistance as that observed with the activation of MET. To this end, six V600E BRAF melanoma cell lines were tested for their resistance to either BRAFi (PLX4720) or MEKi (PD184352) after the addition of 22 RTK ligands that have the potential of activating almost all known RTKs. […] The activation of a selected subset of these RTKs was confirmed by western blotting and by high throughput tyrosine kinase phosphorylation profiling.",
  "data": [
    {"molecule": "VEGF-C (protein, UniProt P49767 112-227, looked up) Vascular endothelial growth …: AHYNTEILKSIDNEWRKTQCMPREVCIDVGKEFGVATNTFFKPPCVSVYRCGGCCNSEGLQCMNTSTSYLSKTLFEITVPLSQGPKPVTISFANHTSCRCMSKLDVYRQVHSIIRR", "values": [
      {"measurement": "ability of recombinant RTK ligand to confer resistance", "setting": "A2058, PD184352 - 1 uM, ligand 1.6 ng/ml", "value": 1.01},
      {"measurement": "ability of recombinant RTK ligand to confer resistance", "setting": "A2058, PD184352 - 1 uM, ligand 6.25 ng/ml", "value": 1.02},
      {"measurement": "ability of recombinant RTK ligand to confer resistance", "setting": "A2058, PD184352 - 1 uM, ligand 25 ng/ml", "value": 1.01},
      {"measurement": "ability of recombinant RTK ligand to confer resistance", "setting": "A2058, PD184352 - 1 uM, ligand 100 ng/ml", "value": 0.99},
      {"measurement": "ability of recombinant RTK ligand to confer resistance", "setting": "A2058, PD184352 - 1 uM, ligand 400 ng/ml", "value": 0.94},
      {"measurement": "ability of recombinant RTK ligand to confer resistance", "setting": "A2058, PLX4720 - 2 uM, ligand 1.6 ng/ml", "value": 1.03},
      {"measurement": "ability of recombinant RTK ligand to confer resistance", "setting": "A2058, PLX4720 - 2 uM, ligand 6.25 ng/ml", "value": 1.04},
      {"measurement": "ability of recombinant RTK ligand to confer resistance", "setting": "A2058, PLX4720 - 2 uM, ligand 25 ng/ml", "value": 1.05},
      {"measurement": "ability of recombinant RTK ligand to confer resistance", "setting": "A2058, PLX4720 - 2 uM, ligand 100 ng/ml", "value": 1.04},
      {"measurement": "ability of recombinant RTK ligand to confer resistance", "setting": "A2058, PLX4720 - 2 uM, ligand 400 ng/ml", "value": 1.02},
      {"measurement": "ability of recombinant RTK ligand to confer resistance", "setting": "C32, PD184352 - 1 uM, ligand 1.6 ng/ml", "value": 1.06},
      {"measurement": "ability of recombinant RTK ligand to confer resistance", "setting": "C32, PD184352 - 1 uM, ligand 6.25 ng/ml", "value": 1.03},
      {"measurement": "ability of recombinant RTK ligand to confer resistance", "setting": "C32, PD184352 - 1 uM, ligand 25 ng/ml", "value": 1.16},
      {"measurement": "ability of recombinant RTK ligand to confer resistance", "setting": "C32, PD184352 - 1 uM, ligand 100 ng/ml", "value": 1.00},
      {"measurement": "ability of recombinant RTK ligand to confer resistance", "setting": "C32, PD184352 - 1 uM, ligand 400 ng/ml", "value": 1.07},
      {"measurement": "ability of recombinant RTK ligand to confer resistance", "setting": "C32, PLX4720 - 2 uM, ligand 1.6 ng/ml", "value": 0.94},
      {"measurement": "ability of recombinant RTK ligand to confer resistance", "setting": "C32, PLX4720 - 2 uM, ligand 6.25 ng/ml", "value": 1.09},
      {"measurement": "ability of recombinant RTK ligand to confer resistance", "setting": "C32, PLX4720 - 2 uM, ligand 25 ng/ml", "value": 1.06},
      {"measurement": "ability of recombinant RTK ligand to confer resistance", "setting": "C32, PLX4720 - 2 uM, ligand 100 ng/ml", "value": 1.08},
      {"measurement": "ability of recombinant RTK ligand to confer resistance", "setting": "C32, PLX4720 - 2 uM, ligand 400 ng/ml", "value": 1.08},
      {"measurement": "ability of recombinant RTK ligand to confer resistance", "setting": "Colo 829, PD184352 - 1 uM, ligand 1.6 ng/ml", "value": 0.97},
      {"measurement": "ability of recombinant RTK ligand to confer resistance", "setting": "Colo 829, PD184352 - 1 uM, ligand 6.25 ng/ml", "value": 1.02},
      {"measurement": "ability of recombinant RTK ligand to confer resistance", "setting": "Colo 829, PD184352 - 1 uM, ligand 25 ng/ml", "value": 0.94},
      {"measurement": "ability of recombinant RTK ligand to confer resistance", "setting": "Colo 829, PD184352 - 1 uM, ligand 100 ng/ml", "value": 0.95},
      {"measurement": "ability of recombinant RTK ligand to confer resistance", "setting": "Colo 829, PD184352 - 1 uM, ligand 400 ng/ml", "value": 0.90},
      {"measurement": "ability of recombinant RTK ligand to confer resistance", "setting": "Colo 829, PLX4720 - 2 uM, ligand 1.6 ng/ml", "value": 0.99},
      {"measurement": "ability of recombinant RTK ligand to confer resistance", "setting": "Colo 829, PLX4720 - 2 uM, ligand 6.25 ng/ml", "value": 1.00},
      {"measurement": "ability of recombinant RTK ligand to confer resistance", "setting": "Colo 829, PLX4720 - 2 uM, ligand 25 ng/ml", "value": 0.92},
      {"measurement": "ability of recombinant RTK ligand to confer resistance", "setting": "Colo 829, PLX4720 - 2 uM, ligand 100 ng/ml", "value": 0.95},
      {"measurement": "ability of recombinant RTK ligand to confer resistance", "setting": "Colo 829, PLX4720 - 2 uM, ligand 400 ng/ml", "value": 0.90},
      {"measurement": "ability of recombinant RTK ligand to confer resistance", "setting": "G-361, PD184352 - 1 uM, ligand 1.6 ng/ml", "value": 0.97},
      {"measurement": "ability of recombinant RTK ligand to confer resistance", "setting": "G-361, PD184352 - 1 uM, ligand 6.25 ng/ml", "value": 0.97},
      {"measurement": "ability of recombinant RTK ligand to confer resistance", "setting": "G-361, PD184352 - 1 uM, ligand 25 ng/ml", "value": 0.91},
      {"measurement": "ability of recombinant RTK ligand to confer resistance", "setting": "G-361, PD184352 - 1 uM, ligand 100 ng/ml", "value": 0.90},
      {"measurement": "ability of recombinant RTK ligand to confer resistance", "setting": "G-361, PD184352 - 1 uM, ligand 400 ng/ml", "value": 0.89},
      {"measurement": "ability of recombinant RTK ligand to confer resistance", "setting": "G-361, PLX4720 - 2 uM, ligand 1.6 ng/ml", "value": 1.01},
      {"measurement": "ability of recombinant RTK ligand to confer resistance", "setting": "G-361, PLX4720 - 2 uM, ligand 6.25 ng/ml", "value": 0.97},
      {"measurement": "ability of recombinant RTK ligand to confer resistance", "setting": "G-361, PLX4720 - 2 uM, ligand 25 ng/ml", "value": 0.92},
      {"measurement": "ability of recombinant RTK ligand to confer resistance", "setting": "G-361, PLX4720 - 2 uM, ligand 100 ng/ml", "value": 0.88},
      {"measurement": "ability of recombinant RTK ligand to confer resistance", "setting": "G-361, PLX4720 - 2 uM, ligand 400 ng/ml", "value": 0.85},
      {"measurement": "ability of recombinant RTK ligand to confer resistance", "setting": "SK-MEL-5, PD184352 - 1 uM, ligand 1.6 ng/ml", "value": 0.97},
      {"measurement": "ability of recombinant RTK ligand to confer resistance", "setting": "SK-MEL-5, PD184352 - 1 uM, ligand 6.25 ng/ml", "value": 0.36},
      {"measurement": "ability of recombinant RTK ligand to confer resistance", "setting": "SK-MEL-5, PD184352 - 1 uM, ligand 25 ng/ml", "value": 0.96},
      {"measurement": "ability of recombinant RTK ligand to confer resistance", "setting": "SK-MEL-5, PD184352 - 1 uM, ligand 100 ng/ml", "value": 0.98},
      {"measurement": "ability of recombinant RTK ligand to confer resistance", "setting": "SK-MEL-5, PD184352 - 1 uM, ligand 400 ng/ml", "value": 0.33},
      {"measurement": "ability of recombinant RTK ligand to confer resistance", "setting": "SK-MEL-5, PLX4720 - 2 uM, ligand 1.6 ng/ml", "value": 0.95},
      {"measurement": "ability of recombinant RTK ligand to confer resistance", "setting": "SK-MEL-5, PLX4720 - 2 uM, ligand 6.25 ng/ml", "value": 0.83},
      {"measurement": "ability of recombinant RTK ligand to confer resistance", "setting": "SK-MEL-5, PLX4720 - 2 uM, ligand 25 ng/ml", "value": 0.87},
      {"measurement": "ability of recombinant RTK ligand to confer resistance", "setting": "SK-MEL-5, PLX4720 - 2 uM, ligand 100 ng/ml", "value": 0.92},
      {"measurement": "ability of recombinant RTK ligand to confer resistance", "setting": "SK-MEL-5, PLX4720 - 2 uM, ligand 400 ng/ml", "value": 0.85},
      {"measurement": "ability of recombinant RTK ligand to confer resistance", "setting": "SK-MEL-28, PD184352 - 1 uM, ligand 1.6 ng/ml", "value": 1.09},
      {"measurement": "ability of recombinant RTK ligand to confer resistance", "setting": "SK-MEL-28, PD184352 - 1 uM, ligand 6.25 ng/ml", "value": 0.95},
      {"measurement": "ability of recombinant RTK ligand to confer resistance", "setting": "SK-MEL-28, PD184352 - 1 uM, ligand 25 ng/ml", "value": 0.90},
      {"measurement": "ability of recombinant RTK ligand to confer resistance", "setting": "SK-MEL-28, PD184352 - 1 uM, ligand 100 ng/ml", "value": 1.08},
      {"measurement": "ability of recombinant RTK ligand to confer resistance", "setting": "SK-MEL-28, PD184352 - 1 uM, ligand 400 ng/ml", "value": 0.85},
      {"measurement": "ability of recombinant RTK ligand to confer resistance", "setting": "SK-MEL-28, PLX4720 - 2 uM, ligand 1.6 ng/ml", "value": 1.05},
      {"measurement": "ability of recombinant RTK ligand to confer resistance", "setting": "SK-MEL-28, PLX4720 - 2 uM, ligand 6.25 ng/ml", "value": 0.94},
      {"measurement": "ability of recombinant RTK ligand to confer resistance", "setting": "SK-MEL-28, PLX4720 - 2 uM, ligand 25 ng/ml", "value": 0.98},
      {"measurement": "ability of recombinant RTK ligand to confer resistance", "setting": "SK-MEL-28, PLX4720 - 2 uM, ligand 100 ng/ml", "value": 1.01},
      {"measurement": "ability of recombinant RTK ligand to confer resistance", "setting": "SK-MEL-28, PLX4720 - 2 uM, ligand 400 ng/ml", "value": 0.89}
    ]}
  ]
}
